According to US20260000740A1, “USE OF A L-ASPARAGINASE IN COMBINATION WITH A FERROPTOSIS INDUCER FOR THE TREATMENT OF EXTRANODAL NATURAL KILLER/T-CELL LYMPHOMA” (Institut National de la Santé et de la Recherche Médicale, priority 2022, published 2026):

B1: Kidrolase: L-Asparaginase from E. Coli (Kidrolase®) (protein, UniProt P00805 23-348, looked up)
L-asparaginase 2: LPNITILATGGTIAGGGDSATKSNYTVGKVGVENLVNAVPQLKDIANVKGEQVVNIGSQDMNDNVWLTLAKKINTDCDKTDGFVITHGTDTMEETAYFLDLTVKCDKPVVMVGAMRPSTSMSADGPFNLYNAVVTAADKASANRGVLVVMNDTVLDGRDVTKTNTTDVATFKSVNYGPLGYIHNGKIDYQRTPARKHTSDTPFDVSKLNELPKVGIVYNYANASDLPAKALVDAGYDGIVSAGVGNGNLYKSVFDTLATAAKTGTAVVRSSRVPTGATTQDAEVDDAKYGFVASGTLNPQKARVLLQLALTQTKDPQQIQQIFNQY
B2: Erwinase: L-ASP protein from Erwinia chrysanthemi, named crisantaspase, marketed as Erwinase®; SEQ ID NO:1 (protein, listed as Erwinia chrysanthemi)
chain: ADKLPNIVILATGGTIAGSAATGTQTTGYKAGALGVDTLINAVPEVKKLANVKGEQFSNMASENMTGDVVLKLSQRVNELLARDDVDGVVITHGTDTVEESAYFLHLTVKSDKPVVFVAAMRPATAISADGPMNLLEAVRVAGDKQSRGRGVMVVLNDRIGSARYITKTNASTLDTFKANEEGYLGVIIGNRIYYQNRIDKLHTTRSVFDVRGLTSLPKVDILYGYQDDPEYLYDAAIQHGVKGIVYAGMGAGSVSVRGIAGMRKAMEKGVVVIRSTRTGNGIVPPDEELPGLVSDSLNPAHARILLMLALTRTSDPKVIQEYFHTY

Legend:
[1] = system: KHYG-1 cells; assay: Cell viability measurement by flow cytometry (Annexin V/PI); assay type: cell-based, human; conditions: for Effect of Gln addition on cell death: Gln addition combined to treatment alone; for Asparaginase sensitivity: KHYG1 cell line
Method: KHYG-1 cells were seeded into flat wells of a 96-wells plate (Falcon) at a final concentration of 0.1 10^6 cells/well. APR-246 was dispensed at a final concentration of 20 uM and Asparaginases were dispensed at a final concentration range from 0.1 to 1 UI/mL. Plates were incubated at 37° C. and 5% CO2 for 72 hours in a humidity chamber. Cell viability was determined by flow cytometry using Annexin V (APC Annexin V, BD Biosciences, ref: 550474, 1:100 dilution)/Propidium Iodide (PI) (Propidium Iodide, Invitrogen, ref: BMS500FI-100, 1:20 dilution) staining. After 20 min incubation at 4° C. away from light, flow cytometry was performed using BD Fortessa cytometer (with HTS device for plate reading).
Flow cytometry data were analysed using FlowJo software and GraphPad-Prism 9. R software and Rstudio interface (version 1.4.1106) were used for synergy score calculation. Calculations were based on the Loewe model.

[2] = system: GSH; assay: Quantification of GSH levels and GSH/GSSG ratio in tumor cells (metabolomics, specific quantification); assay type: cell-based, human; conditions: for GSH / GSH/GSSG ratio: metabolomic analysis in tumor cells after one day treatment, single agent
From the text: (§1) Then, we wanted to uncover the metabolic changes induced by ASNase resistance.

[3] = system: lipid peroxidation; assay: Lipid peroxidation in KHYG1 cell line; assay type: cell-based, human; conditions: added to RSL3 combined with Erwinase; FIG. 2B
[4] = system: MEC-04 cell line; assay: Asparaginase sensitivity of cell lines; assay type: cell-based, human
[5] = system: YT1 cell line; assay: Asparaginase sensitivity of cell lines; assay type: cell-based, human
[6] = system: NALM6 human acute lymphoblastic leukemia cell line; assay: Asparaginase sensitivity of cell lines; assay type: cell-based
[7] = system: mitochondrial ROS; assay: Quantification of mitochondrial ROS levels in tumor cells; assay type: cell-based, human; conditions: Erwinase compared to Kidrolase; data not shown
From the text: as §1

[8] = system: extracellular Gln; assay: Extracellular glutamine levels in supernatant of cultured cells; assay type: cell-based, human; conditions: cells cultured with each drug; compared to Kidrolase; data not shown
From the text: Glutamine (Gln) intake from extracellular compartment is converted in Glutamate (Glu) by glutaminase (GLS) and participates to cancer cells protection from oxidative stress through solute carrier family 7-member 11 (SLC7A11) expression. SLC7A11 encodes the cystine/Glu antiporter xCT which imports cysteine into the cell in exchange for Glu […].

Row | Molecule | Effect of Gln addition on cell death ([1]; data not shown) | Effect of ferrostatin-1 addition on GSH decrease ([2]; added to RSL3 combined with Erwinase, FIG. 2B) | Effect of ferrostatin-1 addition on lipid peroxidation accumulation [3] | Effect of co-treatment with ferrostatin-1 on the decrease in cell viability ([1]; RSL3+Erwinase-treated cells, data not shown) | Asparaginase sensitivity [4] | Asparaginase sensitivity [5] | Asparaginase sensitivity [6] | GSH ([2]; data not shown) | GSH/GSSG ratio ([2]; data not shown) | Asparaginase sensitivity [1] | GSH levels ([2]; Erwinase compared to Kidrolase, data not shown) | Effect of extracellular Gln addition on intracellular GSH levels ([2]; upon Erwinase treatment, data not shown) | ROS levels [7] | Gln extracellular levels in the supernatant [8]
1 | COCC1(CO)C(=O)C2CCN1CC2 (stereo not shown) [APR-246, 2-(hydroxymethyl)-2-(methoxymethyl)-1-azabicyclo[2.2.2]octan-3-one, reference compound] | no effect |  |  |  |  |  |  |  |  |  |  |  |  | 
2 | CCOC(=O)c1ccc(NC2CCCCC2)c(N)c1 [ferrostatin-1, reference compound] |  | reversed | reversed | abrogated |  |  |  |  |  |  |  |  |  | 
3 | B1 | no effect |  |  |  | high sensitivity | high sensitivity | resistant | decrease | decrease | resistant |  |  |  | 
4 | B2 | partially prevents cell death |  |  |  | high sensitivity | high sensitivity | resistant | more pronounced | more pronounced | resistant | GSH decrease | significantly rescues | higher ROS levels | deeper extracellular Gln depletion
